The nature of this data set: yeast display, Sf9 membrane polyspecificity reagent, FACS + sequencing; frameworks hold sequencing errors. The essentials: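 Galactose induction of a Saccharomyces cerevisiae BJ5465 synthetic nanobody display library ran 36–48 hours. The cells were then stained for 1 hour at 4 °C with 10% biotinylated, detergent-solubilized Sf9 membrane reagent, pulled down on streptavidin microbeads and FACS-sorted into low and high (top ~1%) gates on expression and reagent-binding fluorescence. Labels for polyreactivity follow the gate of origin.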
As to “QVQLVESGGGLVQAGGSLRLSCAASGSIFSRYAMGWYRQAPGNERELVAAITSGGSTKYADSVKGRFTISRDNAKNTVYLQMNSLKPEDTAVYYCNADRRFRKYPFGYWGQGTQVTVSS”, the “polyreactivity (PSR sort gate)” value is “high polyreactivity”.

As to “QVQLVESGGGLVQAGGSLRLSCAASGSIFSRYTRGWYRQAPGKEWELVASISRRGGRTYYADSVKGRFTISRDNAKNTVYLQMNSPKPEDTAVYYCNARGHGSAVGPFTRVNSWGQGTQVTVSS”, the “polyreactivity (PSR sort gate)” value was “high polyreactivity”.

Turning to “QVQLVESGGGLVQAGGSLRLSCAASGSIFSSNAMGWYIQAPGKERELVASIDGGPTTYADSVKGRFTISRDNAKNTVYLQMNSLKPEDTAVYYCNADSLDGPKFDYWGQGTQVTVSS”, the “polyreactivity (PSR sort gate)” value was “low polyreactivity”.

For the sequence “QVQLVESGGGLVQAGGSLRLSCAASGSIFSSNAMGWYRPAPGKERELVAAISSGGTTNYADSVKGRFTISRDNAKHTVYLQMNSLKPEDTAVYYCAKRGPSRPAEYDYWGQGTQVTVSS”, the “polyreactivity (PSR sort gate)” value is reported as “low polyreactivity”.

As for “QVQLVESGGGLVQAGGSLRLSCAASGSIFSSNAMGWYRPAPGKERELVAAISWNGGRTYYADSVKGRFTISRDNAKNTVYLQMNSLKPEDTAVYYCATRFYRPRDGLYDYWGQGTQVTVSS”, the “polyreactivity (PSR sort gate)” value is on record as “high polyreactivity”.

On to “QVQLVESGGGLVQAGGSLRLSCAASGSIFSSNAMGWYRQAPGKERELVAAISKSGSRTYYADSVKGRFTISRDNAKNTVYLQMNSLKPEDTAVYYCNAVGVSVYYAIAYDYWGQGTQVTVSS”, for which the “polyreactivity (PSR sort gate)” value is reported as “high polyreactivity”.

Turning to “QVQLVESGGGLVQAGGSLRLSCAASGSIFSSNAMGWYRQAPGKERELVAAITRGGRTTYADSVKGRFTISRDNAKNTVYLQMNSLKPEDTAVYYCAALHGRYPNRYDYWGQGTQVTVSS”, the “polyreactivity (PSR sort gate)” value is recorded as “low polyreactivity”.

On to “QVQLVESGGGLVQAGGSLRLSCAASGSIFSSYAMGWYRQAPGKERELVAAISKSGVSTYYADSVKGRFTISRDNAKNTVYLQMNSLKPEDTAVYYCNAKGKYWHYDYWGQGTQVTVSS”, for which the “polyreactivity (PSR sort gate)” value is “high polyreactivity”.

As to “QVQLVESGGGLVQAGGSLRLSCAASGSIFSSYAMGWYRQAPGKERELVAAITSGGSTYYADSVKGRFTISRDNAKNTVYLLMNSLKPEDTAVYYCAARQVRTSILHMGYWGQGTQVTVSS”, the “polyreactivity (PSR sort gate)” value is recorded as “low polyreactivity”.

With “QVQLVESGGGLVQAGGSLRLSCAASGSIFSSYAMGWYRQAPGKEREVVASINSAGSTNYADSVKGRFTISRDNAKNTVYLQMNSLKPDDTAVYYCAASGGTWVNYRPEYDYWGQGTQVTVSS”, the “polyreactivity (PSR sort gate)” value is “low polyreactivity”.

For “QVQLVESGGGLVQAGGSLRLSCAASGSIFSSYVMGWYRQAPGKEREVVAAITSRGGSTYYADSVKGRFTISRDNAKNTVYLQMNSLKPEDTAVYYCAKGGTTWYWSGYRSIYFRYDYWGQGTQVTVSS”, the “polyreactivity (PSR sort gate)” value was “high polyreactivity”.

Consider “QVQLVESGGGLVQAGGSLRLSCAASGSIFSTNAMGWYRQAPGKERELVAVITGIGGITYYADSVKGRFTISRDIAKNTVYLQMNSLIPEDTAVYYCAVGYWDSRYRYDLPNSDYWGQGTEVTVSS”, for which the “polyreactivity (PSR sort gate)” value is reported as “low polyreactivity”.

“QVQLVESGGGLVQAGGSLRLSCAASGSIFSTYAMGWYRQAHGKERELVAAISRSGGSTYYADSVKGRFTISRDNAKNTVYLQMNSLKPEDTAVYYCAKVGRRQRYDYWGQGTQVTVSS”: the “polyreactivity (PSR sort gate)” value is listed as “high polyreactivity”.

For the sequence “QVQLVESGGGLVQAGGSLRLSCAASGSIFSTYAMGWYRQAPGKERELVASITSTGGSTYYADSVKGRFTISRDNAKNTVYLQMNSLKPEDTAVYYCAARYRRTHRYYYAYSTMDYWGQGTQVTVSS”, the “polyreactivity (PSR sort gate)” value is “high polyreactivity”.

On to “QVQLVESGGGLVQAGGSLRLSCAASGSIFSTYAMGWYRQAPGKERELVATIRRGGSTYYADSVKGRFTISRDNAKNTVYLQMNSLKPEDTAVYYCAATVSSYPYYRYYSWGQGTQVTVSS”, for which the “polyreactivity (PSR sort gate)” value is “high polyreactivity”.

For the sequence “QVQLVESGGGLVQAGGSLRLSCAASGSIFSTYAMGWYRQAPGTERELVAAITWSGGSTYYADSVKGRFTISRDNAKNTVYFQMNSLKPEDTAVYYCATRGQGWGGKYGYWGQGTQVTVSS”, the “polyreactivity (PSR sort gate)” value is listed as “low polyreactivity”.

As to “QVQLVESGGGLVQAGGSLRLSCAASGSIFSTYTMGWYRQAPGKERELVAAITRSGGSTYYADSVKGRFTISRDNAKNTVYLQMNSLKPEDTAVYYCAARWKFPSSFYYWGQGTQVTVSS”, the “polyreactivity (PSR sort gate)” value is on record as “high polyreactivity”.

Regarding “QVQLVESGGGLVQAGGSLRLSCAASGSIFSWNAMGWYRQAPGKERELVAAITGGGSTYYADSVKGRFTISRDNAKNTFYLQMNSLKPEDTAVYYCNALWYWDKLEYWGQGTQVTVSS”, the “polyreactivity (PSR sort gate)” value is reported as “high polyreactivity”.

“QVQLVESGGGLVQAGGSLRLSCAASGSIFSWYAMGSYTQAPGKESELVAAITRGGSTYADSVKGRFTISRDNAKNTVYLQMNSLKPEDTAVYYCNAVYGVYDFNYWGQGTQVTVSS”: the “polyreactivity (PSR sort gate)” value was “low polyreactivity”.

Take “QVQLVESGGGLVQAGGSLRLSCAASGSIFSWYAMGWYRQAPGKERELVAAITWTGGSTYYADSVKGRFTISRDNAKNTVYLQMNSLKPEDTAVYYCAARRVVYRYYWYSAYDYWGQGTQVTVSS”: the “polyreactivity (PSR sort gate)” value was “high polyreactivity”.

For the sequence “QVQLVESGGGLVQAGGSLRLSCAASGSIFSYKAMGWYRQAPGKERELVAAISWSGGRTYYADSVKGRFTISRDNAKNTVYLQMNSLKPEDTAVYYCNAQYRLYSEFNYWGQGTQVTVSS”, the “polyreactivity (PSR sort gate)” value is “high polyreactivity”.

On to “QVQLVESGGGLVQAGGSLRLSCAASGSIFSYNAMGWNRQAPGKESELVAAISWSGGRTYYADSVKGRFTISRDNAKNTVYLQMNSLKPEDTAVYYCNAQYRLYSEFNYWGQGTQVTVSS”, for which the “polyreactivity (PSR sort gate)” value is “high polyreactivity”.

For “QVQLVESGGGLVQAGGSLRLSCAASGSIFSYNAMGWYRQAPGKERELVAVITRGGSTYYADSVKGRFTISRDNAKNTVYLQMNSLKPEDTAVYYCAAGAHRRGYDYWGQGTQVTVSS”, the “polyreactivity (PSR sort gate)” value is “high polyreactivity”.

Consider “QVQLVESGGGLVQAGGSLRLSCAASGSIFSYNGMGWYRQAPGKEREFVAAITWRGGSTYYADSVKGRFTISRDNAMNTVYLQMNSLKPEDTAVYYCARRPGYALTWRVSGRYDYWGQGTQVTVSS”, for which the “polyreactivity (PSR sort gate)” value is on record as “high polyreactivity”.

In the case of “QVQLVESGGGLVQAGGSLRLSCAASGSIFSYNMGWYRQAPGKEREFVAAISSGGSTYYADSVKGRFTISRDNAKNTVYLQMNSLKPEDTAVYYCNRVRRGVWRQDDYWGQGTQVTVSS”, the “polyreactivity (PSR sort gate)” value is given as “high polyreactivity”.

Consider “QVQLVESGGGLVQAGGSLRLSCAASGSIFSYNTMGWYRQAPGKERELVASISSSGGTTYYADSVKGRFTISRDNAKNTVYLQMNSLKPEDTAVYYCAAKLRSYYSGPRYYYWGQGTQVTVSS”, for which the “polyreactivity (PSR sort gate)” value is listed as “high polyreactivity”.

On to “QVQLVESGGGLVQAGGSLRLSCAASGSIFSYYAMAWYRHAPGKEREMVAAITSGGATTYYADSVKGRFTISRDNAKNTVYLQMNSLKQEDTAVYFCAAGYYVYFRWWELDYWGQGTQVTVSS”, for which the “polyreactivity (PSR sort gate)” value is “low polyreactivity”.

“QVQLVESGGGLVQAGGSLRLSCAASGSIFSYYAMAWYRQAPGKERELVAAITWSGTRTYYADSVKGRFTISRDNAKNTVYLQMNSLKPEDTAVYYCAADSSIRDDYWGQGTQVTVSS”: the “polyreactivity (PSR sort gate)” value is recorded as “low polyreactivity”.

Consider “QVQLVESGGGLVQAGGSLRLSCAASGSIFSYYAMGWYRQAPGKERELFADINLDDGRTYYADSVKGRFTISRDNAKNTVYLQMNSLKPEDTAVYYCAADEFYSFRYLFGPTFDYWGQGTQVTVSS”, for which the “polyreactivity (PSR sort gate)” value is reported as “high polyreactivity”.

In the case of “QVQLVESGGGLVQAGGSLRLSCAASGSIFSYYAMGWYRQAPGKERELVAAISGSGGSTYYADSVKGRFTISRDNAKNTVYLQMNSLKPDDNAVYSCAARYYAWGRRRTWDDYWGQGTQVTVSS”, the “polyreactivity (PSR sort gate)” value is given as “high polyreactivity”.

The record behind these values is the nanobody polyreactivity screen of Harvey et al. (2022).
